This data set in a line: yeast display, Sf9 membrane polyspecificity reagent, FACS + sequencing; frameworks hold sequencing errors. The method in brief:
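Nanobodies came from a synthetic yeast display library in Saccharomyces cerevisiae BJ5465, induced with galactose for 36–48 hours and stained for 1 hour at 4 °C with 10% biotinylated, detergent-solubilized Sf9 membrane reagent. Cells were enriched on streptavidin microbeads and then FACS-sorted, with low and high (top ~1%) gates set on anti-HA fluorescence for expression and streptavidin fluorescence for reagent binding. Each polyreactivity label reflects the gate a clone came from. Genes were amplified by colony PCR, sequenced by MiSeq 2 × 250 and filtered by CDR length.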
Consider “QVQLVESGGGLVQEGGCLRLSSAASGSIFKSNAMGWYRQAPGKERELVATISRIGGSTYYADSVKGRFTISRDNAKNTVYLQMNCLKPEDTAVYYFAARRYLYTVGYGPRRGLVYWGQGTQVTVSS”, for which the “polyreactivity (PSR sort gate)” value is “high polyreactivity”.
To “QVQLVESGGGLVQEGGSHSLSCAASGRTFKYKAMGWSRPAPGKERELVASISGSGGRTYYADSVKGRFTISRDIAKNSVFLQMYRLNPEDTAVYFCNATRVKWLDWGQGTQVTVSS” belongs “high polyreactivity”; to “QVQLVESGGGLVQEGGSIRLSCAASGSTFFLYAMGWYRQAPGKERELVAAITYTDGDTYYADSVKGRFTISRDNAKNTVYLQMNSLKPEDNAVYYCNAGGDEPVYGSGYDYWGQGTQVTVSS”, “low polyreactivity”.
To “QVQLVESGGGLVQEGGSLRLICAASGNTSPFYSMGWYRQAPGKERELVAAISANGGSTTYADSVKGRFTISRDNAKNTVYLQMNSLKTEVTAVYYCNTYYWYSGSPYVYWGQGTQVTVSS” belongs “low polyreactivity”; to “QVQLVESGGGLVQEGGSLRLICAASGRILRDNAMGWYRQAPGKERELVAAISVSTVSTYYADSVKGLFTISRDNANNTVYFHMNSLKPEDTAVYYCNADATDSYPEKDEHDSWGQGTQVTVSS”, “low polyreactivity”; to “QVQLVESGGGLVQEGGSLRLICAASGRTLYHYVMGWYSQAPGKERELVAAISSGGSTYYADSVKGRFTISRDNAKNTVYLQMNSLKPEDTAVYFCAAGRRGDWGQGTQVTVSS”, “high polyreactivity”.
To “QVQLVESGGGLVQEGGSLRLRCAASGSIFYRYAMGWYRQAPGKERELVAAISSTGSTYYADSVKGRFTISRDNAKNTVYLQMNSLKPEDTAVYYCAARQGYRSYRRYDYWGQGTQVTVSS” belongs “high polyreactivity”; to “QVQLVESGGGLVQEGGSLRLSCAACGFTFTTNAMGWYRQAPGKERELVAGITFIGGSTYYADSVKGRFTISRDNAKNTVYLQMNNLKPEDTAVYYCAAEWVLVYLQYTYEDYDYWGQGTQVTVSS”, “low polyreactivity”.
With “QVQLVESGGGLVQEGGSLRLSCAASGFIFFLNAMGWYRQAPGKERELVAAISSSGGRTYYADSVKGRFTISRDNAKITVYLQMNSLKTEVTAVYYCNAVTLYRSRTDGYWGQGTQVTVSS”, the “polyreactivity (PSR sort gate)” value is reported as “high polyreactivity”.
With “QVQLVESGGGLVQEGGSLRLSCAASGFIFRSYAMGWYRKAPGKERELVAAISSSGGSTYYADSVKGRFTISRDNAKNTVYLPMNSLKPEDTAVYYCAKGYQRGRDYWGQGTQVTVSS”, the “polyreactivity (PSR sort gate)” value is “high polyreactivity”.
Then “QVQLVESGGGLVQEGGSLRLSCAASGFSFERNAMGWDRQAPGKERELVATIPWSGTRTNYADSVKGRFTISRDNAKNTVYVQMNSLKPEDTAVYYCAVVVSAPSRESKSTVQMDYWGQGTQVTVSS”, with “high polyreactivity”; and “QVQLVESGGGLVQEGGSLRLSCAASGFTFGSYAMGWYRQAPGTERELLAAITTDGSTYYADSVKGRFTISRDNAKNTVYLHMNSLKREDTAVYYCAAGYSYDRYGSDMDYWGQGTQVTVSS”, with “low polyreactivity”.
To “QVQLVESGGGLVQEGGSLRLSCAASGITFDNYDMGWYRQAPGKERELVAAISSDDNTTYADSVKGRFTISRDNAMNTVYFQMNSLKTDDTAVYYCAADYRIYGYLEYDYWGQGTQVTVSS” belongs “low polyreactivity”.
Turning to “QVQLVESGGGLVQEGGSLRLSCAASGITFDYYAMGLYRQAPGKERELVASISYSGGSTYADSVKGRFTISRDNAKNTVYLQMNSLKPEDTAVYYCAKDSQETAYNTVDYCGQGTQVTVSS”, the “polyreactivity (PSR sort gate)” value was “low polyreactivity”.
In the case of “QVQLVESGGGLVQEGGSLRLSCAASGLIVGQNAMGWYRQAPGKDRELVAAISQRGGTYYADSVKGRFTISRDNAKNTVYLQMNSLKPEDTAVLYCAARVGLQPGRYYLRYDYWGQGTQVTVSS”, the “polyreactivity (PSR sort gate)” value is given as “low polyreactivity”.
To “QVQLVESGGGLVQEGGSLRLSCAASGNTVGINAMGWYRQAPGKERELVASISFTGSSTYYADSVKGRFTISRDNAKNTVYFQMNSLKPEDTAVSYCNRDRITLYEYDYWGQGTQVTVSS” belongs “low polyreactivity”; to “QVQLVESGGGLVQEGGSLRLSCAASGRIIERSAMGWYRQAPGKERELVAGISISGGGTYYADSVKGRFTISRDKAKNTVYLLMNCLKPEDTSVYYCAGTFPREEYGYWGQGTQVTVSW”, “low polyreactivity”; to “QVQLVESGGGLVQEGGSLRLSCAASGRIIEYNTMGLNRPATGKERELVAAITGGTGSTYYADSVKGRFTISRDNAKNTVYLQMNSLIPVDTSVYYCNADGMILYDYWGQGTQVTVSS”, “low polyreactivity”.
Then “QVQLVESGGGLVQEGGSLRLSCAASGRTFDRYAMGWYRQAPGKERELVAAITWTGGSTYYADSVKGRFTISRDNAKNTVYLQMNSLKPEDTAFYYCNRAPSRPTSKTRLYYWGKGTQVTVSS”, with “high polyreactivity”; and “QVQLVESGGGLVQEGGSLRLSCAASGRTFEQNAMGWYRQAPGKERELVASITSVGSTDYADSVKGRFTISRDNAKNTVYLQMNSLKTEDTAVYYCAKTLGSQNYDFDYWGQGTQVTVSS”, with “low polyreactivity”.
For “QVQLVESGGGLVQEGGSLRLSCAASGRTFVPYAMGWYRQAPGKERELVAAISRSGGRTYYADSVKGRFTLSRDNAKNTVYLQMKSLKPEDTAVYYCAARYYSEPNAYYYWGQGTQVSVSS”, the “polyreactivity (PSR sort gate)” value is given as “high polyreactivity”.
Then “QVQLVESGGGLVQEGGSLRLSCAASGSIFDDYAMGWYRQAPGKEWELVAAITSGGSTYYADSVKGRFTISRDNAKNTVYLQMNSLKPEDTAVYYRATRYHWSSSFAPVGAYGYWGHGTQVTVSS”, with “low polyreactivity”; and “QVQLVESGGGLVQEGGSLRLSCAASGSIFDVYAMGWSRQGPGKERELVAAISSSGSTYYADSVKGRFTISRDNAKNTVYLQMNSLKPEDTAVYYCAAVQADDDDYYYWGQGTQVTVSS”, with “low polyreactivity”; and “QVQLVESGGGLVQEGGSLRLSCAASGSIFKPYAMGWYRQAPGKERELVAAINRGGTSTYYADSVKGRFTISRDNAKHTVYLQMNRLKPEDTAVYYCAAEGQDGRFYWGQGTQVTVSS”, with “low polyreactivity”.
Take “QVQLVESGGGLVQEGGSLRLSCAASGSTFGLYAMGWYRQAPGKERELVAAISSRGSRTYYADSVKGRFTISRDNAKNTVYLQMNSLKPEDTAVYYCNAMYASCVRHKVTYDYWGQGTLVTVSS”: the “polyreactivity (PSR sort gate)” value is “high polyreactivity”.
To “QVQLVESGGGLVQEGGSLRLSCAASGSTFNYYAMGWYRQAPGKESELVARISWSGSTYADSVKGRFTISRDNAKNTVYLQMNSLKPEDTAVYYCAAPYVLKSHRGMDYWGQGTQVTVSS” belongs “low polyreactivity”.
Then “QVQLVESGGGLVQEGGSLRLSCAASGSTISSYAMGWYRQAPGKERELVAAITSGGSTYYADSVKGRFTFSRDNAKNTVYLQMNSLKPDDTAVYYCDLGSTTMDYWGQGTQVTVSS”, with “low polyreactivity”.
For the sequence “QVQLVESGGGLVQEGGSLRLSCADSGITFWAYAMGWYRQAPGKERELVASISSGGSTYYADSVKGRFTISRDNAKNTVYLQMNSLKPEDTAVYYCNTQDRSEYDWGQGTQVTVSS”, the “polyreactivity (PSR sort gate)” value is “high polyreactivity”.
In the case of “QVQLVESGGGLVQEGGSLRLSCADSGSISYQNAMGWYRQAPGKERELVAAISGDGDSTYYADSVKGRFTISRDNAKNTVYLQMNSLNPEDTGVYYCAAEPNVYFSVFVLFPSDYWGQGTQVTVSS”, the “polyreactivity (PSR sort gate)” value was “low polyreactivity”.
“QVQLVESGGGLVQEGGSLRLSCASSGFTFAYNAMVLYRQAPGKERELVAGINSSGDGTYYADSVKGRFTISRDNAKNTVYLQMNSLKPEETAVYYCAADYTRFYPDGSDVDYDYWGQGTQVTVSS”: the “polyreactivity (PSR sort gate)” value is “low polyreactivity”.
Take “QVQLVESGGGLVQEGGSLSLSCAASGITFRSYTMGWYRQAPGKERELLAGITRRGGSTFYADSVKGRFTISRDNATNTVYLQMNSLNPEDTAVYFCAVGFYYLSSWYSYDYRGQGTQVTVSS”: the “polyreactivity (PSR sort gate)” value is “high polyreactivity”.
Then “QVQLVESGGGLVQEGRSLRLSCAASGLTFQYYAMGWYRPAPGKERELVAAISSGGDTYYADSVKGRFTISRDNAKNNVYFQMYSVKREDTAVYYCAARVVLYSRSTYYYWGQGTQVTVSS”, with “high polyreactivity”; and “QVQLVESGGGLVQEGRSLRLSCAASGSIFTPYAMGWYRQAPGKERELVADINSGGSTDYADSVKGRFTISRDNAKNTVYLQMNSLKPEDTAVYYCASTWSFYFILYDYWGQGTQVTVSS”, with “high polyreactivity”; and “QVQLVESGGGLVQERGSLRLSCAASGSIFIPYARGWYRQAPGKERELVAAISLGDGKTYYADSVKGRFTISRDNAKNTVYLQMNSLKPEDTAVYYCNAVPRKFGDEYWGQGTQVTVSS”, with “low polyreactivity”.
For the sequence “QVQLVESGGGLVQEVGSLRLSCAATGRTFYQNVMGWSRQARGKERELVAAISQRGGRTYYADSVKGRFTISRDNAKITVYLQMNSLKPEDTEVYYCNADSTVWPYDYWGQGTQVTVSS”, the “polyreactivity (PSR sort gate)” value is “low polyreactivity”.
Then “QVQLVESGGGLVQGGGSLRFSCAASGSTFPSYARGWYRQAPGKERELVAAINSGGGTNYADSVKGRFTISRDNAKNTVYLHMNSLKPEDTAVYYCAKSRYDYTKTEGGYWGQGTQVTVSS”, with “low polyreactivity”; and “QVQLVESGGGLVQGGGSLRLRCAASGRSFKWYAMVWYRQAPGKDRELVAGISRGAGRTYYADSEKGRFTISRDNAKNTVYLQMNSLKADDTAVYYCAAVPSYHSTSPFYYWGLGTQVTVSS”, with “high polyreactivity”; and “QVQLVESGGGLVQGGGSLRLSCAASGFTFVYYAMGWDRQAPGKERELVAAISRSGGSTYYADSVKGRFTISRDNAKNTFYLQMNSLKPEDTAVYYCAARKNYGSRLSYEYWGQGTQVSVSS”, with “high polyreactivity”.
To “QVQLVESGGGLVQGGGSLRLSCAASGLIFSYYAMGWYRQAPGKERELVAAISRGGATNYADSVKGRFTISRDTAKNTVYLQMNSLKPEDTAVYYCSARFVLRRDYGYWGQGTQVTVSS” belongs “high polyreactivity”.
Then “QVQLVESGGGLVQGGGSLRLSCAASGLIFYRNDMVWNRQAPGKERELVDAISKNGANTYYADSVKGRFTSSRDNAKNTVYLHMNCLKREDTAVYYCAKGVYYPWWYVQPEHDYWGQVTQVTVSS”, with “high polyreactivity”.
With “QVQLVESGGGLVQGGGSLRLSCAASGRTFYRYVMGWYRQAPGKERELVADISRRGGRTYYADSVKGRFTISRDNAKNTVYLQMNSLKPEDTAVYYCAAGQLGDYWGLGTQVTVSS”, the “polyreactivity (PSR sort gate)” value is on record as “high polyreactivity”.

The record behind these values is the nanobody polyreactivity screen of Harvey et al. (2022).
